From article PMC10980815, “Cell surface patching via CXCR4-targeted nanothreads for cancer metastasis inhibition” (Nature Communications, 2024)
Ends that are not written are not given here. HPMA copolymer = HPMA copolymer made by RAFT copolymerization of HPMA with N-(3-aminopropyl)methacrylamide (APMA), bearing maleimide groups for grafting

Legend:
[1] = Hydrodynamic size / size distribution by dynamic light scattering; format: physicochemical; conditions: Malvern Zetasizer Nano ZS90, mean ± SD
Experimental: (§1) The average molecular weight (Mw) and polydispersity (PDI) of the HPMA copolymer conjugates were determined by gel permeation chromatography (GPC) on an AKTA purifier equipment with a Superose 6 10/300 GL analytical column (GE Healthcare, USA) and a differential refraction detector (KNAUER, 2300, Germany). Hydrodynamic sizes and zeta potentials were determined using a Malvern Zetasizer Nano ZS90 equipment (Malvern Instruments Ltd, Malvern, UK). The contents of BS, CM1, and CM2 were determined using a bicinchoninic acid (BCA) protein assay. The PS concentration was determined by ultraviolet-visible (UV-Vis) spectroscopy at its characteristic absorbance peak (660 nm).
To investigate the coiled-coil assembly, varying CM1-to-CM2 ratios (3:1, 1:1, and 1:3) of P-BS-CM1 and P-CM2 were mixed in 10 mM PBS (pH 7.4) at 25 °C for 10 min. The total polymer concentration was kept constant at 10 mg/mL. Circular dichroism spectra, size distribution, and rheological properties of P-BS-CM1, P-CM2, and their mixture were measured. The surface morphology of P-BS-CM1 and the mixture (P-BS-CM1 + P-CM2) was observed using scanning electron microscopy. Additionally, for the FRET assay, CM1-to-CM2 equimolar of P-BS-CM1-Cy5 and P-CM2-Cy3 were mixed in 10 mM PBS (pH 7.4) at 25 °C for 10 min. Fluorescent spectra of P-BS-CM1-Cy5, P-CM2-Cy3, and the mixture (P-BS-CM1-Cy5+P-CM2-Cy3) were recorded at the Cy3 excitation wavelength of 550 nm.

ζ-potential (Zetasizer) = format: physicochemical; conditions: Malvern Zetasizer Nano ZS90; mean ± SD
Experimental: as §1

[2] = test system: orthotopic 4T1 breast tumors; assay: Tumor accumulation of Cy5-labeled nanothreads (IVIS imaging, excised tumors); format: in vivo, female BALB/c mice
Experimental: For in vitro studies, 4T1 cells (2 × 10^5 cells) were seeded on coverslips (NEST Biotechnology) for attachment. Subsequently, the cells were treated with i) Cy5-labeled P-CM1 (P-CM1-Cy5) for 1 h, followed by incubation in cell culture medium for an additional 1 h, ii) Cy5-labeled P-BS-CM1 (P-BS-CM1-Cy5) for 1 h, followed by incubation in cell culture medium for an additional 1 h, or iii) P-BS-CM1-Cy5 for 1 h, followed by Cy3-labeled P-CM2 (P-CM2-Cy3) for an additional 1 h (5 nM Cy5 and 5 nM Cy3 equivalence), respectively. Following the treatments, cells were washed three times with PBS, stained with DAPI, and observed using a confocal microscope. For in vivo studies, 4T1 cells (1 × 10^6) were injected into the third mammary fat pad of female BALB/c mice (6–8 weeks, 20 ± 2 g) (n = 3) on day 0 to establish orthotopic breast tumor models. For investigation of CXCR4 binding, mice on day 14 (tumor volume, ~200 mm^3) were intravenously injected with P-CM1-Cy5 or P-BS-CM1-Cy5 (equivalent Cy5 dose, 5 nmol/mouse, n = 3). Whole-body living imaging at 24, 48, and 72 h post-administration as well as excised tumors at the end point, were captured using the IVIS optical imaging system (IVIS Lumina Series III, PerkinElmer, USA). For the analysis of CM1/CM2 biorecognition in the second step, 4T1 tumor-bearing mice (tumor volume, ~200 mm^3) were intravenously injected with Cy5 labeled P-CM2 (P-CM2-Cy5) alone on day 15, or pre-injected P-BS-CM1 on day 14 followed by intravenous injection of P-CM2-Cy5 on day 15 (equivalent Cy5 dose, 5 nmol/mouse, n = 3). Whole-body living imaging at 24 and 48 h post-P-CM2-Cy5 administration, as well as excised tumors at the end point, were captured using the IVIS optical imaging system. For further investigation, mice (tumor volume, ~200 mm^3) were intravenously injected with P-BS-CM1-Cy5 on day 14 and then P-CM2-Cy3 on day 15 (5 nmol of Cy5 and 5 nmol of Cy3 per mouse). One day later, tumor tissues were collected for frozen sectioning and further observation by confocal microscope.
(§2) Three distinct delivery approaches were implemented in 4T1 tumor-bearing female BALB/c mice (6–8-week, tumor volume~200 mm^3, n = 5 per group). i) Consecutive delivery: Nanothread-1 and nanothread-2 were sequentially administered via intravenously injection with a 24 h time interval. ii) Simultaneous delivery: Nanothread-1 and Nanothread-2 were concurrently administered through two tail veins of one mouse. iii) Post-assembly delivery: Nanothread-1 and Nanothread-2 were pre-mixed before intravenous injection (5 nmol of Cy5 and 5 nmol of Cy3 per mouse). For the tumor accumulation study, whole-body living imaging was conducted at 24, 48, and 72 h post-administration of Cy5-labeled Nanothread. Additionally, excised tumors were imaged at the end point using the IVIS optical imaging system. For the pharmacokinetics study, blood samples were extracted at predetermined time points post-administration of fluorescence-labeled Nanothread, n = 5 per group. The fluorescent intensity in blood samples was measured with a microplate reader at the wavelengths of Cy5 (Ex: 630 nm, Em: 670 nm) and Cy3 (Ex: 530 nm, Em: 570 nm). Pharmacokinetic parameters, including half-life (T1/2z), area under curve (AUC), and mean residence time (MRT), were calculated using DAS 2.0 software.

[3] = Pharmacokinetics upon consecutive, simultaneous and post-assembly delivery; format: in vivo, female BALB/c mice; conditions: for T1/2z: blood fluorescence, mean ± SD, n = 5; for AUC0-t / AUC0-∞ / MRT0-t / MRT0-∞: same
Experimental: as §2

P-PS-CM2: HPMA backbone grafted with CM2 and chlorin e6 photosensitizer (C(HPMA copolymer)YGGEVSALEKEVSALEKKNSALEKEVSALEKEVSALEK; also: chlorin e6 photosensitizer on polymer)
Size [1]: 25.8±1.2 nm | ζ-potential (ζ-potential (Zetasizer)): -11.21±1.24 mV

P-CM2: HPMA copolymer-CM2 conjugate, ~12 CM2 grafts per polymer (C(HPMA copolymer)YGGEVSALEKEVSALEKKNSALEKEVSALEKEVSALEK; also: CM2 N-terminal cysteine joined to a maleimide of the HPMA copolymer backbone, ~12 per polymer)
Size [1]: 19.2±0.7 nm | ζ-potential (ζ-potential (Zetasizer)): -8.73±0.34 mV

P-CM2-Cy5: Cy5 labeled P-CM2 (C(HPMA copolymer)YGGEVSALEKEVSALEKKNSALEKEVSALEKEVSALEK; also: Cy5 label on conjugate, position not given here)
Size [1]: 19.8±0.7 nm | ζ-potential (ζ-potential (Zetasizer)): -8.94±0.45 mV | tumor accumulation of Nanothread-2 (Fig. 5b, excised tumors) ([2]; P-CM2-Cy5 i.v. 5 nmol Cy5/mouse 24 h after saline or P-BS-CM1, IVIS at end point (48 h), animal 1 of 3): 1.72 | tumor accumulation of Nanothread-2 (Fig. 5b, excised tumors) ([2]; P-CM2-Cy5 i.v. 5 nmol Cy5/mouse 24 h after saline or P-BS-CM1, IVIS at end point (48 h), animal 1 of 3, listed as G3): 0.962 | tumor accumulation of Nanothread-2 (Fig. 5b, excised tumors) ([2]; same, animal 2 of 3): 1.74 | tumor accumulation of Nanothread-2 (Fig. 5b, excised tumors) ([2]; same, animal 2 of 3, listed as G3): 0.787 | tumor accumulation of Nanothread-2 (Fig. 5b, excised tumors) ([2]; same, animal 3 of 3): 1.49 | tumor accumulation of Nanothread-2 (Fig. 5b, excised tumors) ([2]; same, animal 3 of 3, listed as G3): 0.495 | T1/2z ([3]; Consecutive delivery (24 h interval) with unlabeled partner nanothread, i.v., 4T1 tumor-bearing mice, 5 nmol Cy5/mouse, DAS 2.0): 20.232 ± 6.5 h | AUC0-t ([3]; Consecutive delivery): 2807.529 ± 561.373 ng·h/mL | AUC0-∞ ([3]; Consecutive delivery): 2999.46 ± 668.451 ng·h/mL | MRT0-t ([3]; Consecutive delivery): 15.196 ± 1.358 h | MRT0-∞ ([3]; Consecutive delivery): 21.117 ± 3.236 h | T1/2z ([3]; Post-assembly delivery (pre-mixed with unlabeled partner nanothread before i.v. injection)): 14.142 ± 3.54 h | AUC0-t ([3]; Post-assembly delivery): 1356.51 ± 241.624 ng·h/mL | AUC0-∞ ([3]; Post-assembly delivery): 1374.981 ± 237.509 ng·h/mL | MRT0-t ([3]; Post-assembly delivery): 8.789 ± 0.154 h | MRT0-∞ ([3]; Post-assembly delivery): 10.384 ± 0.829 h | T1/2z ([3]; Simultaneous delivery (two tail veins, 0 h) with unlabeled partner nanothread, i.v.): 17.583 ± 4.307 h | AUC0-t ([3]; Simultaneous delivery): 1339.808 ± 201.879 ng·h/mL | AUC0-∞ ([3]; Simultaneous delivery): 1385.53 ± 238.655 ng·h/mL | MRT0-t ([3]; Simultaneous delivery): 9.919 ± 0.611 h | MRT0-∞ ([3]; Simultaneous delivery): 12.694 ± 2.736 h

B1: P-BS-CM1: linear HPMA polymer backbone grafted with CXCR4 binding sequence (BS) and coiled motif CM1 (conjugate)
chain 1: LGASWHRPDKCCLGYQKRPLPA
chain 2: C(HPMA copolymer)YGGKVSALKEKVSALKEEVSANKEKVSALKEKVSALKE
modifications: not fully specified (some residues); also: BS cysteines (Cys11, Cys12) joined to maleimides of the HPMA copolymer backbone, ~6 per polymer, CM1 N-terminal cysteine joined to a maleimide of the HPMA copolymer backbone, ~4 per polymer
Size [1]: 17.5±2.1 nm | ζ-potential (ζ-potential (Zetasizer)): -5.67±0.79 mV
